Assay results: patent publication US20250250343A1 (UNITY BIOTECHNOLOGY, published 2025)
Where two headings read alike, the source gives them in different places.

Tests used:
Assay in all cases: cell-based or functional assay
VEGF [1] = molecular target: T1, VEGF (human, UniProt P15692-4)
VEGF [2] = molecular target: T1, VEGF; remark: listed apart in the source
human Tie2 [3] = molecular target: T2, human Tie2 (human, UniProt Q02763 23-1124)
VEGF [4] = molecular target: T1, VEGF; remark: listed apart in the source
human Tie2 [5] = molecular target: T2, human Tie2; remark: listed apart in the source
human Tie2 [6] = molecular target: T2, human Tie2; remark: listed apart in the source
VEGF [7] = molecular target: T1, VEGF; remark: listed apart in the source
human Tie2 [8] = molecular target: T2, human Tie2; remark: listed apart in the source
human Tie2 [9] = molecular target: T2, human Tie2; remark: listed apart in the source
human Tie2 [10] = molecular target: T2, human Tie2; remark: listed apart in the source
human Tie2 [11] = molecular target: T2, human Tie2; remark: listed apart in the source
human Tie2 [12] = molecular target: T2, human Tie2; remark: listed apart in the source

T1 sequence (P15692 other isoform, or with tags, fused parts or gaps limits assumed): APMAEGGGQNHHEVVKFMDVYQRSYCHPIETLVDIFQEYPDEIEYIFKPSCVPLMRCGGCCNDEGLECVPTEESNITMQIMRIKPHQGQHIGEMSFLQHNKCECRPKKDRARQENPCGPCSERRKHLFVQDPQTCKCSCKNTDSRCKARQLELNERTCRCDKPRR
T2 sequence (Q02763 23-1124): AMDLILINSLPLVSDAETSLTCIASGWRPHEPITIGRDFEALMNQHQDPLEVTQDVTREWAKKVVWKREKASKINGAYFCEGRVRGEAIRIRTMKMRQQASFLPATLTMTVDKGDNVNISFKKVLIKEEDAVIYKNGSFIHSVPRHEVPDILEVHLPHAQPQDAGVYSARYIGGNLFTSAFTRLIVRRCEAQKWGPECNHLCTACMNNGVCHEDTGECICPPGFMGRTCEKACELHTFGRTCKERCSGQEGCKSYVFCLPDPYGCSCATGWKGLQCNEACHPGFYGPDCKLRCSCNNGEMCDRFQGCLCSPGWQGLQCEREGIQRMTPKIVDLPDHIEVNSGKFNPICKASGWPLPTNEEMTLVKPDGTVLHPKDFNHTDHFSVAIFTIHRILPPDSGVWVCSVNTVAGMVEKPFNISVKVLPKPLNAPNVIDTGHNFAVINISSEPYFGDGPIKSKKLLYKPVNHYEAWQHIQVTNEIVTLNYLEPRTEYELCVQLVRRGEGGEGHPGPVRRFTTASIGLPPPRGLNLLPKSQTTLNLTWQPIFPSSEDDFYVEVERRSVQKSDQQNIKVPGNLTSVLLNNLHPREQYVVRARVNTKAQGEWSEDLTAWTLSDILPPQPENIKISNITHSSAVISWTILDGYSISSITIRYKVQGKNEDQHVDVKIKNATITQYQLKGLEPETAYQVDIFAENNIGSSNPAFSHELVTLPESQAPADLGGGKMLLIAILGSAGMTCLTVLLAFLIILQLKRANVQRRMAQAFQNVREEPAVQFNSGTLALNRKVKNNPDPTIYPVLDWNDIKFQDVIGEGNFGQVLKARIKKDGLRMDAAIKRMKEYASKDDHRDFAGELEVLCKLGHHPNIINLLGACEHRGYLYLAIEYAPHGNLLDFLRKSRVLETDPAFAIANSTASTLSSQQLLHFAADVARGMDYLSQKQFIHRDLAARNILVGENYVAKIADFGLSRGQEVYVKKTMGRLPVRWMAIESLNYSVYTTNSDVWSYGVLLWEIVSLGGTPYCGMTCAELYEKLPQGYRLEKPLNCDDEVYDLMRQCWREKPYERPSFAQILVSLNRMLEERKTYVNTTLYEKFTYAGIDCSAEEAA

Row | Binder | EC50, VEGF neutralisation, KDR/NFAT-RE HEK293 luciferase reporter (VEGF [1]) [nM] | EC50, VEGF neutralisation, KDR/NFAT-RE HEK293 luciferase reporter (the sheet's head prints no unit, EC50 in nM per legend paragraph 17) (VEGF [2]) [nM] | EC50, pTie2 in HUVEC (in vitro potency) (human Tie2 [5]) [nM] | EC50, pAkt in HUVEC (MSD ELISA) [Panel B] (human Tie2 [6]) [nM] | EC50, VEGF inhibition, KDR/NFAT-RE HEK293 luciferase reporter [Panel C] (VEGF [7]) [nM] | EC50, pTIE2 in HUVEC [Panel C] (human Tie2 [8]) [nM] | EC50, pTie2 in HUVEC, W/ VEGF (panels A-C print 'W/ VEGF 50nM'; paragraph 153 says 20 nM) [Panel D] (human Tie2 [9]) [nM] | EC50, pTie2 in HUVEC, W/O VEGF [Panel D] (human Tie2 [9]) [nM] | further results
1 | #13 (bispecific antibody, human IgG1, kappa, L234A L235A) heavy chain: DVQLVESGGGVVRPGESLRLSCTASGFTFDSYGMSWVRQAPGKGLEWVSSINVGDNTYYADSVRGRFIISRDSSRNTLYLQMNSLTAEDTAVYYCANWNSFFDYWGLGTLVTVSSASTKGPSVFPLAPSSKSTSGGTAALGCLVKDYFPEPVTVSWNSGALTSGVHTFPAVLQSSGLYSLSSVVTVPSSSLGTQTYICNVNHKPSNTKVDKKVEPKSCDKTHTCPPCPAPEAAGGPSVFLFPPKPKDTLMISRTPEVTCVVVDVSHEDPEVKFNWYVDGVEVHNAKTKPREEQYNSTYRVVSVLTVLHQDWLNGKEYKCKVSNKALGAPIEKTISKAKGQPREPQVYTLPPSREEMTKNQVSLTCLVKGFYPSDIAVEWESNGQPENNYKTTPPVLDSDGSFFLYSKLTVDKSRWQQGNVFSCSVMHEALHNHYTQKSLSLSPGKKEHVRVFTSNKKTMLGSSAACTYLGQDSRTVGDITLTSLFKKMESGSQTKLDRNVLKKHQHKSSPYEWNFDIGVNLETRATCNLVLKEGVSLEIGHSPSLVVDIITNTQRHTLYNTKYLHGNVTAECTLLGIEKYTANSIIFGKRSDWIIRKGDPILTDLPFKKLTVTINPSTVRCPIVLERGETMHIIEPIESYMEVFPRGTDS light chain (kappa): not shown | 0.854 |  |  |  |  |  |  |  | 
2 | #11 (bispecific antibody, human IgG1, kappa, L234A L235A) heavy chain: DVQLVESGGGVVRPGESLRLSCTASGFTFDSYGMSWVRQAPGKGLEWVSSINVGDNTYYADSVRGRFIISRDSSRNTLYLQMNSLTAEDTAVYYCANWNSFFDYWGLGTLVTVSSASTKGPSVFPLAPSSKSTSGGTAALGCLVKDYFPEPVTVSWNSGALTSGVHTFPAVLQSSGLYSLSSVVTVPSSSLGTQTYICNVNHKPSNTKVDKKVEPKSCDKTHTCPPCPAPEAAGGPSVFLFPPKPKDTLMASRTPEVTCVVVDVSHEDPEVKFNWYVDGVEVHNAKTKPREEQYNSTYRVVSVLTVLAQDWLNGKEYKCKVSNKALGAPIEKTISKAKGQPREPQVYTLPPSREEMTKNQVSLTCLVKGFYPSDIAVEWESNGQPENNYKTTPPVLDSDGSFFLYSKLTVDKSRWQQGNVFSCSVMHEALHNAYTQKSLSLSPGKGGGGSGGGGSDIQLTQSPSSLSASVGDRVTITCSASQDISNYLNWYQQKPGKAPKVLIYFTSSLHSGVPSRFSGSGSGTDFTLTISSLQPEDFATYYCQQYSTVPWTFGQGTKVEIKGQSSRSSGGGGSSGGGGSEVQLVESGGGLVQPGGSLRLSCAASGYDFTHYGMNWVRQAPGKGLEWVGWINTYTGEPTYAADFKRRFTFSLDTSKSTAYLQMNSLRAEDTAVYYCAKYPYYYGTSHWYFDVWGQGTLVTVSS light chain (kappa): not shown |  | 0.107 |  |  |  |  |  |  | 
3 | #2 (bispecific antibody, human IgG1, kappa, L234A L235A) heavy chain: DVQLVESGGGVVRPGESLRLSCTASGFTFDSYGMSWVRQAPGKGLEWVSSINVGDNTYYADSVRGRFIISRDSSRNTLYLQMNSLTAEDTAVYYCANWNSFFDYWGLGTLVTVSSASTKGPSVFPLAPSSKSTSGGTAALGCLVKDYFPEPVTVSWNSGALTSGVHTFPAVLQSSGLYSLSSVVTVPSSSLGTQTYICNVNHKPSNTKVDKKVEPKSCDKTHTCPPCPAPEAAGGPSVFLFPPKPKDTLMISRTPEVTCVVVDVSHEDPEVKFNWYVDGVEVHNAKTKPREEQYNSTYRVVSVLTVLHQDWLNGKEYKCKVSNKALGAPIEKTISKAKGQPREPQVYTLPPSREEMTKNQVSLTCLVKGFYPSDIAVEWESNGQPENNYKTTPPVLDSDGSFFLYSKLTVDKSRWQQGNVFSCSVMHEALHNHYTQKSLSLSPGKGGGGSGGGGSDIQMTQSPSSLSASVGDRVTITCRASQVIRRSLAWYQQKPGKAPKLLIYAASNLASGVPSRFSGSGSGTDFTLTISSLQPEDFATYYCQQSNTSPLTFGQGTKVEIKGQSSRSSGGGGSSGGGGSEVQLVESGGGLVQPGGSLRLSCAASGFSINGSWIFWVRQAPGKGLEWVGAIWPFGGYTHYADSVKGRFTISADTSKNTAYLQMNSLRAEDTAVYYCARWGHSTSPWAMDYWGQGTLVTVSS light chain (kappa): not shown |  | 0.9 |  |  |  |  |  |  | EC50, pTie2 in HUVEC (in vitro potency; the sheet's head prints no unit, EC50 in nM per legend paragraph 17) (human Tie2 [3]): 2.1 nM; IC50 (read off the curve); % VEGF activity, KDR/NFAT-RE HEK293 luciferase reporter [Panel A] (VEGF [4]): ~1 nM
4 | Construct #3 (bispecific antibody, human IgG1, kappa, L234A L235A) heavy: DVQLVESGGGVVRPGESLRLSCTASGFTFDSYGMSWVRQAPGKGLEWVSSINVGDNTYYADSVRGRFIISRDSSRNTLYLQMNSLTAEDTAVYYCANWNSFFDYWGLGTLVTVSSASTKGPSVFPLAPSSKSTSGGTAALGCLVKDYFPEPVTVSWNSGALTSGVHTFPAVLQSSGLYSLSSVVTVPSSSLGTQTYICNVNHKPSNTKVDKKVEPKSCDKTHTCPPCPAPEAAGGPSVFLFPPKPKDTLMISRTPEVTCVVVDVSHEDPEVKFNWYVDGVEVHNAKTKPREEQYNSTYRVVSVLTVLHQDWLNGKEYKCKVSNKALGAPIEKTISKAKGQPREPQVYTLPPSREEMTKNQVSLTCLVKGFYPSDIAVEWESNGQPENNYKTTPPVLDSDGSFFLYSKLTVDKSRWQQGNVFSCSVMHEALHNHYTQKSLSLSPGKGGGGSGGGGSGGGGSSDTGRPFVEMYSEIPEIIHMTEGRELVIPCRVTSPNITVTLKKFPLDTLIPDGKRIIWDSRKGFIISNATYKEIGLLTCEATVNGHLYKTNYLTHRQTNTIIDVVLSPSHGIELSVGEKLVLNCTARTELNVGIDFNWEYPSSKHQHKKLVNRDLKTQSGSEMKKFLSTLTIDGVTRSDQGLYTCAASSGLMTKKNSTFVRVHEK light: not shown | 0.245 |  | 3.55 | 0.87 | 0.31 | 2.42 | 0.87 | 2.24 | 
5 | Construct #1 (bispecific antibody, human IgG1, kappa, L234A L235A) heavy: DVQLVESGGGVVRPGESLRLSCTASGFTFDSYGMSWVRQAPGKGLEWVSSINVGDNTYYADSVRGRFIISRDSSRNTLYLQMNSLTAEDTAVYYCANWNSFFDYWGLGTLVTVSSASTKGPSVFPLAPSSKSTSGGTAALGCLVKDYFPEPVTVSWNSGALTSGVHTFPAVLQSSGLYSLSSVVTVPSSSLGTQTYICNVNHKPSNTKVDKKVEPKSCDKTHTCPPCPAPEAAGGPSVFLFPPKPKDTLMISRTPEVTCVVVDVSHEDPEVKFNWYVDGVEVHNAKTKPREEQYNSTYRVVSVLTVLHQDWLNGKEYKCKVSNKALGAPIEKTISKAKGQPREPQVYTLPPSREEMTKNQVSLTCLVKGFYPSDIAVEWESNGQPENNYKTTPPVLDSDGSFFLYSKLTVDKSRWQQGNVFSCSVMHEALHNHYTQKSLSLSPGKSDTGRPFVEMYSEIPEIIHMTEGRELVIPCRVTSPNITVTLKKFPLDTLIPDGKRIIWDSRKGFIISNATYKEIGLLTCEATVNGHLYKTNYLTHRQTNTIIDVVLSPSHGIELSVGEKLVLNCTARTELNVGIDFNWEYPSSKHQHKKLVNRDLKTQSGSEMKKFLSTLTIDGVTRSDQGLYTCAASSGLMTKKNSTFVRVHEK light: not shown | 1.3 |  | 4.2 | 1.33 | 1.6 | 3.56 | 0.39 | 1.33 | EC50, pTie2 in HUVEC, W/ VEGF (20 nM VEGF-165 per paragraph 153) [Panel E] (human Tie2 [10]): 0.39 nM; EC50, pTie2 in HUVEC, W/O VEGF [Panel E] (human Tie2 [10]): 1.33 nM; EC50, pAkt in HUVEC (MSD ELISA) [Panel B] (human Tie2 [11]): 0.909 nM; phosphorylated Akt potency in HUVEC cells, against Construct #5 (human Tie2 [12]): ~5 fold
